B1: D72-52: VHH72_h1_E1D_S56A-([change])2-hIgG1hinge_EPKSCdel-hIgG1Fc_LALAPG_Kdel (Fc fusion)
chain: DVQLVESGGGLVQPGGSLRLSCAASGRTFSEYAMGWFRQAPGKEREFVATISWSGGATYYTDSVKGRFTISRDNAKNTVYLQMNSLRPEDTAVYYCAAAGLGTVVSEWDYDYDYWGQGTLVTVSSGGGGSGGGGSDKTHTCPPCPAPEAAGGPSVFLFPPKPKDTLMISRTPEVTCVVVDVSHEDPEVKFNWYVDGVEVHNAKTKPREEQYNSTYRVVSVLTVLHQDWLNGKEYKCKVSNKALGAPIEKTISKAKGQPREPQVYTLPPSRDELTKNQVSLTCLVKGFYPSDIAVEWESNGQPENNYKTTPPVLDSDGSFFLYSKLTVDKSRWQQGNVFSCSVMHEALHNHYTQKSLSLSPG
B2: VHH3.47 (VHH)
VHH: QVQLQESGGGLVQAGDSLRLSCAASGHNFSTYAMAWFRQAPGTERELVAAISENDVMRYYADSVKGRFTISRDNAKNMAYLQMNSLKVEDTAVYLCAADPKGWSEWDMDYWGKGTQVTVSS
B3: VHH3.83 (VHH)
VHH: QVQLQESGGGLVQPGDSLRLSCVLSGGVFTSYAMGWFRQAPGKEREFLAAITFNSDATYYADSVKGRFTISRDNAKNTAYLQMNSLKPNDTAVYSCAAGGNHYNPQYYHDYDKYDHWGQGTQVTVSS
B4: VHH3.36 (VHH)
VHH: QVQLQESGGGLVQAGDSLRLSCVVSGGTFSSYAMGWFRQAPGKERELVAAINWGGISVYYADSVKGRFTISRDNAENTVYLQMNSLKPEDTAVYYCAADPKGWSEWDMEYWGKGTQVTVSS
B5: VHH3.144 (VHH)
VHH: QVQLQESGGGLVQAGGSLRLSCVASGRAFGNGAVGWFRQAPGREREFVATVSWNGGGTYYAESVRGRFTISRDNAKSTVYLQMNSLKPEDTAVYYCASAGEGTVVSEWDYDYDYWGQGTQVTVSS
B6: VHH3BE4 (VHH)
VHH: QVQLQESGGGLVQAGGSLRLSCVASGRAFGNGAVGWFRQAPGREREFVATVSWNGGGTYYAESVRGRFTISRDNAKSTVYLQMNSLKPEDTAVYYCASAGEGTVVSEWDYDYDYWGQGTQVTVSS
B7: VHH3.29 (VHH)
VHH: QVQLQESGGGLVQAGGSLRLSCVASGRTFSSGGMGWFRQAPGQEREFVAGIGWAGLSSYYLDSVKGRFTISLDNAKNTVYLQMNMLKPEDTGVYYCAADDHGWSAAGMDYLGQGTQVTVSS
B8: VHH2.50 (VHH)
VHH: QVQLQESGGGLVQAGGSLRLSCAASGRTFSSIAMGWFRQAPGKEREFVATISWSGGSTYYADSVKGRFTISRDNAKNTVYLQMNSLKPEDTAVYYCAAAGLGTVVSEWDYDYDYWGQGTQVTVSS
B9: VHH3.38 (VHH)
VHH: QVQLQESGGGLVQAGGSLRLSCAASGGTFNNYAMAWFRQAPGQERELVAAMFWSGLPKYYADSVKGRFTISTDDAKNTVYLQMNGLKPEDTAVYYCAADSRGWSDVGGMDYWGKGTQVTVSS
B10: VHH3.149 (VHH)
VHH: QVQLQESGGGLVQAGGSLKLSCAASGRTFSSYALGWFRQAPGTEREFVSAINWFGAPTYYADSVKGRFTISRDNAKNTVYLQMDNLKPEDTAVYYCAADSKGWDPQDMDYWGKGTQVTVSS
B11: VHH3.35 (VHH)
VHH: QVQLQESGGGLVQAGGSLTLSCEVSGRTNDNYGVGWFRQVPGAERELVAAIRWSSISRYYKDSVKGRFTISRDNAKNTVYLQMDMLKAEDTAVYYCAADPAGWSEFGMEYWGKGTQVTVSS
B12: VHH3.55 (VHH)
VHH: QVQLQESGGGLVQAGGSLRLSCEVSGRTNDNYGVGWFRQVPGAERELVAAIRWSSISRYYKDSVKGRFTISRDNAKNTVYLQMDMLKPEDTAAYYCAADPAGWSEFGMEYWGKGTQVTVSS

What follows are binders tested against Mouse IgG1 Fc fused SARS-CoV-2 RBD (Sino Biological) (SARS-CoV-2; mouse, UniProt P0DTC2 330-518).
For B1, the IC50 was 0.199 µg/mL.

Each binder was assayed against SARS-CoV-2 RBD protein Avi-tag biotinylated (AcroBiosystems SPD-C82E9) (SARS-CoV-2, UniProt P0DTC2 330-518).
Work on B2 yielded an IC50 of 0.297 nM. For B3, the IC50 was 0.162 nM. Work on B4 yielded an IC50 of 0.156 nM. B5 showed an IC50 of 0.397 nM. In the case of B6, the IC50 is reported as 0.212 nM. B7 was tested, and the IC50 was 0.389 nM. In the case of B8, the IC50 is reported as 27.7 nM. B9 gave an IC50 of 0.769 nM. B10 was tested, and the IC50 was 0.334 nM. Binder B11 has an IC50 of 0.406 nM. Work on B12 yielded an IC50 of 0.322 nM.
